Data published in the supplement of paper PMC10567573.

B1: TCAP (parent)
chain: YQRVLPLPIFTPAKMGATKEERED
B2: DCAF4 (parent)
chain: DSHILLCLMGLAETPGCATLLPAS

Variants of: B1
Test: protein stability index of a GFP-peptide fusion (GPS, HEK-293T) (PSI 1-6); higher = more stable
Conditions: c terminus: a fixed tail appended
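Further: lentivirally expressed fusions sorted by FACS into six bins by GFP to DsRed ratio, PSI derived from sequencing read proportions per bin multiplied by bin number.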

Point of comparison: YQRVLPLPIFTPAKMGATKEEREH [D24H], protein stability index 1.81. Against it:
- YQRVLPLPIFTPAKMGATKEEREW [D24W] — higher, 2.26
- YQRVLPLPIFTPAKMGATKEEREE [D24E] — higher, 2.21
- YQRVLPLPIFTPAKMGATKEEREG [D24G] — higher, 1.84
- YQRVLPLPIFTPAKMGATKEEREC [D24C] — higher, 1.98
- YQRVLPLPIFTPAKMGATKEEREM [D24M] — higher, 1.86
- YQRVLPLPIFTPAKMGATKEEREI [D24I] — higher, 1.99
- YQRVLPLPIFTPAKMGATKEEREL [D24L] — higher, 2.04
- YQRVLPLPIFTPAKMGATKEEREN [D24N] — higher, 2.22
- YQRVLPLPIFTPAKMGATKEEREV [D24V] — higher, 1.87
- YQRVLPLPIFTPAKMGATKEEREQ [D24Q] — higher, 2.03
- YQRVLPLPIFTPAKMGATKEERER [D24R] — lower, 1.55
- YQRVLPLPIFTPAKMGATKEEREA [D24A] — higher, 1.82
- YQRVLPLPIFTPAKMGATKEERET [D24T] — higher, 3.05
- YQRVLPLPIFTPAKMGATKEEREK [D24K] — higher, 2.17
- YQRVLPLPIFTPAKMGATKEEREY [D24Y] — lower, 1.76
- YQRVLPLPIFTPAKMGATKEERES [D24S] — lower, 1.45
- YQRVLPLPIFTPAKMGATKEEREP [D24P] — higher, 1.85
- YQRVLPLPIFTPAKMGATKEEREF [D24F] — lower, 1.75
- YQRVLPLPIFTPAKMGATKEERND [E23N] — lower, 1.8
- YQRVLPLPIFTPAKMGATKEERVD [E23V] — higher, 2.79
- YQRVLPLPIFTPAKMGATKEERWD [E23W] — higher, 2.53
- YQRVLPLPIFTPAKMGATKEERPD [E23P] — higher, 1.95
- YQRVLPLPIFTPAKMGATKEERMD [E23M] — higher, 1.9
- YQRVLPLPIFTPAKMGATKEERLD [E23L] — higher, 2.22
- YQRVLPLPIFTPAKMGATKEERRD [E23R] — higher, 1.92
- YQRVLPLPIFTPAKMGATKEERSD [E23S] — higher, 2
- YQRVLPLPIFTPAKMGATKEERQD [E23Q] — lower, 1.69
- YQRVLPLPIFTPAKMGATKEERYD [E23Y] — higher, 1.93
- YQRVLPLPIFTPAKMGATKEERTD [E23T] — higher, 2.16

Variants of: B2
Test: as above
Conditions: c terminus: a fixed tail appended

Point of comparison: DSHIRLCLMGLAETPGCATLLPAS [L5R], protein stability index 1.44. Against it:
- DSYILLCLMGLAETPGCATLLPAS [H3Y] — higher, 2.67
- DSAILLCLMGLAETPGCATLLPAS [H3A] — higher, 2.76
- DSTILLCLMGLAETPGCATLLPAS [H3T] — higher, 3.73
- DSNILLCLMGLAETPGCATLLPAS [H3N] — higher, 3.2
- DSDILLCLMGLAETPGCATLLPAS [H3D] — higher, 2.49
- DSGILLCLMGLAETPGCATLLPAS [H3G] — higher, 3.24
- DSVILLCLMGLAETPGCATLLPAS [H3V] — higher, 2.04
- DSKILLCLMGLAETPGCATLLPAS [H3K] — higher, 1.81
- DSIILLCLMGLAETPGCATLLPAS [H3I] — higher, 3.85
- DSLILLCLMGLAETPGCATLLPAS [H3L] — higher, 3.05
- DSPILLCLMGLAETPGCATLLPAS [H3P] — higher, 2.65
- DSCILLCLMGLAETPGCATLLPAS [H3C] — higher, 1.61
- DSWILLCLMGLAETPGCATLLPAS [H3W] — higher, 3.17
- DSRILLCLMGLAETPGCATLLPAS [H3R] — higher, 3.45
- DSQILLCLMGLAETPGCATLLPAS [H3Q] — higher, 2.02
- DSEILLCLMGLAETPGCATLLPAS [H3E] — higher, 2.27
- DIHILLCLMGLAETPGCATLLPAS [S2I] — higher, 2.04
- DPHILLCLMGLAETPGCATLLPAS [S2P] — higher, 2.04
- DNHILLCLMGLAETPGCATLLPAS [S2N] — higher, 2.39
- DRHILLCLMGLAETPGCATLLPAS [S2R] — higher, 2.46
- DVHILLCLMGLAETPGCATLLPAS [S2V] — higher, 3.74
- DDHILLCLMGLAETPGCATLLPAS [S2D] — higher, 2.64
- DMHILLCLMGLAETPGCATLLPAS [S2M] — higher, 2.31
- DFHILLCLMGLAETPGCATLLPAS [S2F] — higher, 3.1
- DQHILLCLMGLAETPGCATLLPAS [S2Q] — higher, 3.81
- DAHILLCLMGLAETPGCATLLPAS [S2A] — higher, 3.22
- DWHILLCLMGLAETPGCATLLPAS [S2W] — higher, 2.68
- DTHILLCLMGLAETPGCATLLPAS [S2T] — higher, 2.09
- DHHILLCLMGLAETPGCATLLPAS [S2H] — lower, 1.36
- DLHILLCLMGLAETPGCATLLPAS [S2L] — higher, 2.63
- DKHILLCLMGLAETPGCATLLPAS [S2K] — higher, 2.03
- DGHILLCLMGLAETPGCATLLPAS [S2G] — higher, 3.25
- DEHILLCLMGLAETPGCATLLPAS [S2E] — higher, 2.48
- DSHIDLCLMGLAETPGCATLLPAS [L5D] — higher, 2.09
- DSHIELCLMGLAETPGCATLLPAS [L5E] — higher, 1.78
- DSHIWLCLMGLAETPGCATLLPAS [L5W] — higher, 2.79
- DSHIYLCLMGLAETPGCATLLPAS [L5Y] — higher, 2.77
- DSHISLCLMGLAETPGCATLLPAS [L5S] — higher, 1.78
- DSHIALCLMGLAETPGCATLLPAS [L5A] — higher, 1.77
- DSHITLCLMGLAETPGCATLLPAS [L5T] — higher, 1.65
- DSHIFLCLMGLAETPGCATLLPAS [L5F] — higher, 1.59
- DSHIKLCLMGLAETPGCATLLPAS [L5K] — higher, 2.12
- DSHIVLCLMGLAETPGCATLLPAS [L5V] — higher, 2.28
- DSHIHLCLMGLAETPGCATLLPAS [L5H] — higher, 1.8
- DSHINLCLMGLAETPGCATLLPAS [L5N] — higher, 1.73
- DSHIGLCLMGLAETPGCATLLPAS [L5G] — higher, 2.01
- DSHICLCLMGLAETPGCATLLPAS [L5C] — higher, 2.07
- DSHIPLCLMGLAETPGCATLLPAS [L5P] — higher, 3.06
- DSHIQLCLMGLAETPGCATLLPAS [L5Q] — higher, 2.27
- DSHILLCLMDLAETPGCATLLPAS [G10D] — higher, 2.89
- DSHILLCLMCLAETPGCATLLPAS [G10C] — higher, 3.17
- DSHILLCLMALAETPGCATLLPAS [G10A] — higher, 1.84
- TSHILLCLMGLAETPGCATLLPAS [D1T] — higher, 2.58
- RSHILLCLMGLAETPGCATLLPAS [D1R] — higher, 4.01
- VSHILLCLMGLAETPGCATLLPAS [D1V] — higher, 3.42
- MSHILLCLMGLAETPGCATLLPAS [D1M] — higher, 2.4
- WSHILLCLMGLAETPGCATLLPAS [D1W] — higher, 3.42
- QSHILLCLMGLAETPGCATLLPAS [D1Q] — higher, 2.87
- GSHILLCLMGLAETPGCATLLPAS [D1G] — higher, 3.42
- ASHILLCLMGLAETPGCATLLPAS [D1A] — higher, 2.99
- CSHILLCLMGLAETPGCATLLPAS [D1C] — higher, 3.49
- HSHILLCLMGLAETPGCATLLPAS [D1H] — higher, 2.19
- ESHILLCLMGLAETPGCATLLPAS [D1E] — higher, 2.55
